From patent US20050182242A1, “Global analysis of protein activities using proteome chips” (priority 2001, published 2005)

What was measured:
Conditions in all cases: liposome binding signal on yeast proteome chip, Cy3-streptavidin detection
[1] = system: PI(4)P liposomes; test: Yeast proteome chip probed with PI(4)P liposomes
[2] = system: PI(3)P liposomes; test: Yeast proteome chip probed with PI(3)P liposomes
[3] = system: PI(4,5)P2 liposomes; test: Yeast proteome chip probed with PI(4,5)P2 liposomes
[4] = system: phosphatidylcholine (PC) liposomes; test: Yeast proteome chip probed with PC liposomes
Method in brief: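 Binding detected by fluorescent streptavidin (Cy3 or Cy5, >30 min in the dark at RT) recognizing biotin-DHPE (1% w/w) in PC liposomes, which carried 5% (w/w) of the named phosphoinositide unless PC-only. Liposomes, made by sonication in TBS, were applied to blocked chips for 1 h at RT, then washed in PBS.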

Molecule	PI(4)P [1]	PI(3)P [2]	PI(4, 5)P2 [3]	PC [4]
CMK1: yeast calcium/calmodulin-dependent serine/threonine protein kinase, GST-HisX6 fusion (protein, left off: a dimerising Fc or GST, yeast calcium/calmodulin-dependent serine/threonine protein kinase, GST-HisX6 fusion) MDDKVSEKESSPKQTEEDSEGKMAHVQPASYVNKKKYVFGKTLGAGTFGVVRQAKNTETGEDVAVKILIKKALKGNKVQLEALYDELDILQRLHHPNIVAFKDWFESKDKFYIITQLAKGGELFDRILKKGKFTEEDAVRILVEILSAVKYMHSQNIVHRDLKPENLLYIDKSDESPLVVADFGIAKRLKSDEELLYKPAGSLGYVAPEVLTQDGHGKPCDIWSIGVITYTLLCGYSAFRAERVQDFLDECTTGEYPVKFHRPYWDSVSNKAKQFILKALNLDPSKRPTAAELLEDPWIICTELKTHNLLPGLKEGLDARQKFRNSVERVRLNMKIQKLRDLYLEQTESDSDFDEGSQANGSVPPLKATDTSQLSKKLSEEEQSKLKSELTSKAFAQLVNTVLAEKEKFLNINRVCSSDSDLPGSDIKSLDEAKEKPEGKDTKTEE	105.39	7.00	545.23	1073.54
MY04: yeast class V myosin heavy chain, GST-HisX6 fusion (protein, UniProt P32492 1-1471, looked up, GST-HisX6 tag, yeast class V myosin heavy chain, GST-HisX6 fusion) Myosin-4: MSFEVGTKCWYPHKEQGWIGGEVTKNDFFEGTFHLELKLEDGETVSIETNSFENDDDHPTLPVLRNPPILESTDDLTTLSYLNEPAVLHAIKKRYMNGQIYTYSGIVLIAANPFDKVDHLYSREMIQNYSSKRKDELEPHLFAIAEEAYRFMVHEKANQTVVVSGESGAGKTVSAKYIMRYFASVQESNNREGEVEMSQIESQILATNPIMEAFGNAKTTRNDNSSRFGKYLQILFDENTTIRGSKIRTYLLEKSRLVYQPETERNYHIFYQILEGLPEPVKQELHLSSPKDYHYTNQGGQPNIAGIDEAREYKITTDALSLVGINHETQLGIFKILAGLLHIGNIEMKMTRNDASLSSEEQNLQIACELLGIDPFNFAKWIVKKQIVTRSEKIVTNLNYNQALIARDSVAKFIYSTLFDWLVDNINKTLYDPELDQQDHVFSFIGILDIYGFEHFEKNSFEQFCINYANEKLQQEFNQHVFKLEQEEYVKEEIEWSFIEFSDNQPCIDLIENKLGILSLLDEESRLPSGSDESWASKLYSAFNKPPSNEVFSKPRFGQTKFIVSHYAVDVEYEVEGFIEKNRDSVSLGHLDVFKATTNPIFKQILDNRELRSDDAPEEQNTEKKIMIPARLSQKKPTLGSMFKKSLGELMAIINSTNVHYIRCIKPNSEKKPWEFDNLMVLSQLRACGVLETIRISCAGFPSRWTFDEFVQRYFLLTDYSLWSGILYNPDLPKEAIVNFCQSILDATISDSAKYQIGNTKIFFKAGMLAFLEKLRTNKMNEICIIIQKKIRARYYRLQYLQTMESIKKCQSQIRSLLVRTRVDHELKTRAAILLQTNIRALWKREYYRAAIGQIIKLQCTCKRKLILDSVNRKFMLMAAVIIQSYIRSYGHKTDYRTLKRSSILVQSAMRMQLARRRYIVLQKEVEERNIRASYGIGLLEEAIEFKNSFILNLEMLNDSYTRLTQLLQGDLSNIPSKQRQEYETIVNGYNDKISKLKTLQVEIMNTLNKKNALKERKKKQSSLIQSHMQSLAAIKGNKPSRLSDEVKSMKQELAFIENVIAQDFTTTYSANKNDKVKGLGIAGQQVKPKLVNVIRRESGNPDLLELLMDLNCYTLEVTEGYLKKVNVTEVNGDNVLGPIHVITTVVSSLVRNGLLIQSSKFISKVLLTVESIVMSLPKDETMLGGIFWLSNLSRLPAFAANQKTLYEANGGDEKDKLTLIYLNDLENETLKVFDKIYSTWLVKFMKHASAHIEIFDMVLNEKLFKNSGDEKFAKLFTFLNEFDAVLCKFQVVDSMHTKIFNDTLKYLNVMLFNDLITKCPALNWKYGYEVDRNIERLVSWFEPRIEDVRPNLIQIIQAVKILQLKISNLNEFKLLFDFWYALNPAQIQAILLKYKPANKGEAGVPNEILNYLANVIKRENLSLPGKMEIMLSAQFDSAKNHLRYDTSAITQNSNTEGLATVSKIIKLDRK	36.58	2.00	4.79	103.89
